Among the data in the supplement of paper PMC6755084 are fraction ligated values, retold here.

To fix the notation:
B1: F1*; the commonest letter at each place (parent)
chain: GAGACCGCAACTGAAAAGTTGTTATCACTTGTCGTAAGACACTTTGGATGGGTTGAAGTTCTGCACGTAGAAGCAAAAGGC

In the data set the parent is B1. In words: fraction ligated after 30 min (ligated reads / total reads); higher = more ligase activity. Conditions: with F1*sub RNA substrate (template-directed ligation), 42 °C. How it is done:
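Chip-synthesised pool of F1* ligase ribozyme variants (all single and double substitutions, single, double and triple deletions in the catalytic core and GAA bulge, plus designed variants) was transcribed with T7 and reacted as a pool with excess substrate F1*sub for 30 min at 42 C in 50 mM EPPS pH 8.5, 25 mM MgCl2. Ligated and unligated bands were separated by PAGE, barcoded by RT and deep sequenced; fraction ligated = ligated reads / total reads per variant, relative activity = FL / FL of wild type (0.826). Sequences are the DNA template of the ribozyme.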
On to GAGACCGCAACTGAAAAGTTGTCATTACTTGTCGTAAGACACTTTGGATGGGTTGAAGTTCTGCACGTAGAAGCAAAAGGC [T23C C26T], for which the fraction ligated was determined as 0.779.

As to GAGACCGCAACTGAAAAGTTGTCATAACTTGTCGTAAGACACTTTGGATGGGTTGAAGTTCTGCACGTAGAAGCAAAAGGC [T23C C26A], the fraction ligated worked out at 0.371.

On to GAGACCGCAACTGAAAAGTTGTCATGACTTGTCGTAAGACACTTTGGATGGGTTGAAGTTCTGCACGTAGAAGCAAAAGGC [T23C C26G], for which the fraction ligated was 0.136.

Regarding GAGACCGCAACTGAAAAGTTGTCATCACTTGCCGTAAGACACTTTGGATGGGTTGAAGTTCTGCACGTAGAAGCAAAAGGC [T23C T32C], the fraction ligated turned out to be 0.788.

Turning to GAGACCGCAACTGAAAAGTTGTCATCACTTGACGTAAGACACTTTGGATGGGTTGAAGTTCTGCACGTAGAAGCAAAAGGC [T23C T32A], the fraction ligated is 0.821.

GAGACCGCAACTGAAAAGTTGTCATCACTTGGCGTAAGACACTTTGGATGGGTTGAAGTTCTGCACGTAGAAGCAAAAGGC [T23C T32G]: the fraction ligated stood at 0.827.

In the case of GAGACCGCAACTGAAAAGTTGTCATCACTTGTCGTAAGACACTTTGAATGGGTTGAAGTTCTGCACGTAGAAGCAAAAGGC [T23C G47A], the fraction ligated turned out to be 0.806.

Turning to GAGACCGCAACTGAAAAGTTGTCATCACTTGTCGTAAGACACTTTGTATGGGTTGAAGTTCTGCACGTAGAAGCAAAAGGC [T23C G47T], the fraction ligated was determined as 0.0952.

In the case of GAGACCGCAACTGAAAAGTTGTCATCACTTGTCGTAAGACACTTTGCATGGGTTGAAGTTCTGCACGTAGAAGCAAAAGGC [T23C G47C], the fraction ligated was 0.0373.

For GAGACCGCAACTGAAAAGTTGTCATCACTTGTCGTAAGACACATTGGATGGGTTGAAGTTCTGCACGTAGAAGCAAAAGGC [T23C T43A], the fraction ligated was 0.815.

As for GAGACCGCAACTGAAAAGTTGTCATCACTTGTCGTAAGACACCTTGGATGGGTTGAAGTTCTGCACGTAGAAGCAAAAGGC [T23C T43C], the fraction ligated turned out to be 0.759.

Turning to GAGACCGCAACTGAAAAGTTGTCATCACTTGTCGTAAGACACGTTGGATGGGTTGAAGTTCTGCACGTAGAAGCAAAAGGC [T23C T43G], the fraction ligated worked out at 0.745.

Regarding GAGACCGCAACTGAAAAGTTGTCATCACTTCTCGTAAGACACTTTGGATGGGTTGAAGTTCTGCACGTAGAAGCAAAAGGC [T23C G31C], the fraction ligated was 0.666.

Regarding GAGACCGCAACTGAAAAGTTGTCATCACTTTTCGTAAGACACTTTGGATGGGTTGAAGTTCTGCACGTAGAAGCAAAAGGC [T23C G31T], the fraction ligated came to 0.787.

Take GAGACCGCAACTGAAAAGTTGTCATCACTTATCGTAAGACACTTTGGATGGGTTGAAGTTCTGCACGTAGAAGCAAAAGGC [T23C G31A]: the fraction ligated worked out at 0.619.

For the variant GAGACCGCAACTGAAAAGTTGTCATCACTAGTCGTAAGACACTTTGGATGGGTTGAAGTTCTGCACGTAGAAGCAAAAGGC [T23C T30A], the fraction ligated amounted to 0.802.

GAGACCGCAACTGAAAAGTTGTCATCACTCGTCGTAAGACACTTTGGATGGGTTGAAGTTCTGCACGTAGAAGCAAAAGGC [T23C T30C]: the fraction ligated is 0.789.

In the case of GAGACCGCAACTGAAAAGTTGTCATCACTGGTCGTAAGACACTTTGGATGGGTTGAAGTTCTGCACGTAGAAGCAAAAGGC [T23C T30G], the fraction ligated is 0.833.

Consider GAGACCGCAACTGAAAAGTTGTCATCACTTGTCGTAAGACACTTTCGATGGGTTGAAGTTCTGCACGTAGAAGCAAAAGGC [T23C G46C], for which the fraction ligated amounted to 0.738.

On to GAGACCGCAACTGAAAAGTTGTCATCACTTGTCGTAAGACACTTTAGATGGGTTGAAGTTCTGCACGTAGAAGCAAAAGGC [T23C G46A], for which the fraction ligated came to 0.8.

Turning to GAGACCGCAACTGAAAAGTTGTCATCACTTGTCGTAAGACACTTTTGATGGGTTGAAGTTCTGCACGTAGAAGCAAAAGGC [T23C G46T], the fraction ligated was found to be 0.614.

With GAGACCGCAACTGAAAAGTTGTCATCACCTGTCGTAAGACACTTTGGATGGGTTGAAGTTCTGCACGTAGAAGCAAAAGGC [T23C T29C], the fraction ligated was 0.779.

Consider GAGACCGCAACTGAAAAGTTGTCATCACATGTCGTAAGACACTTTGGATGGGTTGAAGTTCTGCACGTAGAAGCAAAAGGC [T23C T29A], for which the fraction ligated was found to be 0.82.

Take GAGACCGCAACTGAAAAGTTGTCATCACGTGTCGTAAGACACTTTGGATGGGTTGAAGTTCTGCACGTAGAAGCAAAAGGC [T23C T29G]: the fraction ligated came to 0.766.

Consider GAGACCGCAACTGAAAAGTTGTCATCACTTGTCGTAAGTCACTTTGGATGGGTTGAAGTTCTGCACGTAGAAGCAAAAGGC [T23C A39T], for which the fraction ligated is 0.803.

For the variant GAGACCGCAACTGAAAAGTTGTCATCACTTGTCGTAAGGCACTTTGGATGGGTTGAAGTTCTGCACGTAGAAGCAAAAGGC [T23C A39G], the fraction ligated came to 0.831.

On to GAGACCGCAACTGAAAAGTTGTCATCACTTGTCGTAAGACACTTTGGATGGGTTGCAGTTCTGCACGTAGAAGCAAAAGGC [T23C A56C], for which the fraction ligated turned out to be 0.518.

As to GAGACCGCAACTGAAAAGTTGTCATCACTTGTCGTAAGACACTTTGGATGGGTTGGAGTTCTGCACGTAGAAGCAAAAGGC [T23C A56G], the fraction ligated came to 0.698.

As for GAGACCGCAACTGAAAAGTTGTCATCACTTGTCGTAAGACACTTTGGATGGGTTGTAGTTCTGCACGTAGAAGCAAAAGGC [T23C A56T], the fraction ligated was 0.802.

On to GAGACCGCAACTGAAAAGTTGTCATCAATTGTCGTAAGACACTTTGGATGGGTTGAAGTTCTGCACGTAGAAGCAAAAGGC [T23C C28A], for which the fraction ligated turned out to be 0.73.

GAGACCGCAACTGAAAAGTTGTCATCATTTGTCGTAAGACACTTTGGATGGGTTGAAGTTCTGCACGTAGAAGCAAAAGGC [T23C C28T]: the fraction ligated was 0.777.

On to GAGACCGCAACTGAAAAGTTGTCATCAGTTGTCGTAAGACACTTTGGATGGGTTGAAGTTCTGCACGTAGAAGCAAAAGGC [T23C C28G], for which the fraction ligated is 0.732.

On to GAGACCGCAACTGAAAAGTTGTCATCACTTGTTGTAAGACACTTTGGATGGGTTGAAGTTCTGCACGTAGAAGCAAAAGGC [T23C C33T], for which the fraction ligated came to 0.839.

On to GAGACCGCAACTGAAAAGTTGTCATCACTTGTAGTAAGACACTTTGGATGGGTTGAAGTTCTGCACGTAGAAGCAAAAGGC [T23C C33A], for which the fraction ligated worked out at 0.786.
